Laboratory results: patent publication US20210363257A1 (Pieris, published 2021)

Key:
[1] = molecular target: T1, cyPD-L1-His (cynomolgus PD-L1 with a C-terminal polyhistidine tag) (cynomolgus); experiment: ELISA, cyPD-L1-His coated, detection anti-human IgG Fc-HRP
T1 construct: Bought
Protocol: (§1) Recombinant huPD-L1-His or cyPD-L1-His (human or cynomolgus PD-L1 with a C-terminal polyhistidine tag, R&D Systems or Sino Biologics) at the concentration of 1 μg/mL in PBS was coated overnight on microtiter plates at 4° C. After washing with PBS-0.05% T (PBS supplemented with 0.05% (v/v) Tween 20), the plates were blocked with 2% BSA (w/v) in PBS-0.1% T (PBS supplemented with 0.1% (v/v) Tween 20) for 1 h at room temperature. […] Bound molecules under study were detected by incubation with 1:5000 diluted anti-human IgG Fc-HRP (Jackson Laboratory) in PBS-0.1% T-2% BSA. After an additional wash step, fluorogenic HRP substrate (QuantaBlu, Thermo) was added to each well and the fluorescence intensity was detected using a fluorescence microplate reader.

[2] = molecular target: T2, huPD-L1-Fc (recombinant human PD-L1 Fc fusion) (human, UniProt Q9NZQ7 19-239); experiment: competitive ELISA, huPD-1-His coated, 15 nM huPD-L1-Fc tracer, binder titrated
T2 construct: Bought; also called tracer huPD-L1-Fc
Protocol: Recombinant huPD-1-His (Acrobiosystems) in PBS (1 μg/mL) was coated overnight on microtiter plates at 4° C. The plates were washed five times after each incubation step with 100 μL PBS-0.05% T (PBS supplemented with 0.05% (v/v) Tween 20). The plates were blocked with 2% BSA (w/v) in PBS-0.1% T (PBS supplemented with 0.1% (v/v) Tween 20) for 1 h at room temperature and subsequently washed again. […] The mixtures of fusion proteins and the tracer were added to the plates and incubated for 20 min at room temperature following by five washing steps with 100 μL PBS-0.05% T. Subsequently, a 1:5000 dilution of goat-anti human IgG-Fc HRP (Jackson) was added to the wells and incubated for 1 h. After an additional wash step, fluorogenic HRP substrate (QuantaBlu, Thermo) was added to each well, and the fluorescence intensity was detected using a fluorescence microplate reader.

[3] = molecular target: T3, human PD-L1 expressed on cells (human, UniProt Q9NZQ7 19-290); experiment: flow cytometry, Flp-In-CHO::huPDL-1 cells
T3 construct: whole, on cells; also called Flp-In-CHO::huPDL-1; RKO cells
Protocol: (§2) The geometric means of the fluorescence intensity were used to calculate EC₅₀ values using nonlinear regression (shared bottom, SLOPE=1).
(§3) 5×10⁴ cells per well were incubated for 1 h in ice-cold PBS containing 5% fetal calf serum (PBS-FCS). A dilution series of the fusion proteins and control antibodies were added to the cells and incubated for 1 h on ice. Cells were washed twice with PBS and then incubated with a goat anti-hIgG Alexa647-labeled antibody for 30 min on ice. Cells were subsequently washed and analyzed using iQue Flow cytometer (Intellicyte Screener). Mean geometric fluorescent signals were plotted and fitted with Graphpad software using nonlinear regression (shared bottom, SLOPE=1).

[4] = molecular target: T4, huPD-L1-His (human PD-L1 with a C-terminal polyhistidine tag) (human, UniProt Q9NZQ7 19-239); experiment: SPR (Biacore), binder captured by anti-human IgG Fc, huPD-L1-His in solution, 25 C, 1:1 model
T4 construct: Bought; also called biotinylated huPD-L1-His
Protocol: (§4) The binding kinetics and affinity of exemplary fusion proteins to huPD-L1-His or huCD137-His (human PD-L1 or human CD137 with a C-terminal polyhistidine tag, R&D Systems) were determined by surface plasmon resonance (SPR) using a Biacore 8K or a Biacore T200 (GE Healthcare).
(§5) The anti-human IgG Fc antibody (GE Healthcare) was immobilized on a CM5 sensor chip using standard amine chemistry: the carboxyl groups on the chip were activated using 1-ethyl-3-(3-dimethylaminopropyl)-carbodiimide (EDC) and N-hydroxysuccinimide (NHS). Subsequently, anti-human IgG Fc antibody solution (GE Healthcare) at a concentration of 25 μg/mL in 10 mM sodium acetate (pH 5.0) was applied at a flow rate of 5 μL/min until an immobilization level of 6000-10000 resonance units (RU) was achieved. Residual non-reacted NHS-esters were blocked by passing a solution of 1M ethanolamine across the surface. The reference channel was treated in an analogous manner. […] After each capture step, the needle was washed.
(§6) Double referencing was used and the 1:1 binding model was used to fit the raw data.

[5] = molecular target: T5, cynomolgus PD-L1 expressed on cells (cynomolgus); experiment: flow cytometry, Flp-In-CHO::cynoPDL-1 cells
T5 construct: whole, on cells; also called Flp-In-CHO::cynoPDL-1
Protocol: as §2, §3

[6] = molecular target: T3, human PD-L1 expressed on cells; experiment: flow cytometry, RKO tumor cells (PD-L1-positive)
Protocol: as §3
For flow cytometric analysis, RKO cells were incubated with fusion proteins and detected using a fluorescently labeled anti-human IgG antibody as described in Example 6.

[7] = molecular target: T4, huPD-L1-His (human PD-L1 with a …); experiment: ELISA, huPD-L1-His coated, detection anti-human IgG Fc-HRP
Protocol: as §1

[8] = molecular target: T6, huCD137-His (human CD137 with a C-terminal polyhistidine tag) (human, UniProt Q07011 24-186); experiment: SPR (Biacore), binder captured by anti-human IgG Fc, huCD137-His in solution, 25 C, 1:1 model
T6 construct: Bought; also called huCD137-His-Bio
Protocol: as §4, §5, §6

[9] = molecular target: T7, human CD137 expressed on cells (human, UniProt Q07011 24-255); experiment: flow cytometry, Flp-In-CHO::huCD137 cells
T7 construct: whole, on cells; also called Flp-In-CHO::huCD137; NFκB-luc2/CD137 Jurkat cells
Protocol: as §2, §3

[10] = molecular target: T7, human CD137 expressed on cells; experiment: cell-based or functional assay
[11] = molecular target: T6, huCD137-His (human CD137 with a …); experiment: dual-binding ELISA, huCD137-His coated, binder titrated, detection with biotinylated huPD-L1-His
[12] = molecular target: T4, huPD-L1-His (human PD-L1 with a …); experiment: dual-binding ELISA, huPD-L1-His coated, binder titrated, detection with biotinylated huCD137-His
Protocol: Recombinant huPD-L1-His (R&D Systems) in PBS (1 μg/mL) was coated overnight on microtiter plates at 4° C. The plates were washed five times after each incubation step with 100 μL PBS-0.05% T. The plates were blocked with 2% BSA (w/v) in PBS-0.1% T for 1 h at room temperature and subsequently washed again. Different concentrations of tested fusion proteins were added to the wells and incubated for 1 h at room temperature, followed by a wash step. […] After washing, a 1:5000 dilution of ExtrAvidin-HRP (Sigma-Aldrich) in PBS-0.1% T-2% BSA was added to the wells and incubated for 1 h. After an additional wash step, fluorogenic HRP substrate (QuantaBlu, Thermo) was added to each well, and the fluorescence intensity was detected using a fluorescence microplate reader.

[13] = molecular target: T6, huCD137-His (human CD137 with a …); experiment: ELISA, huCD137-His coated, detection anti-NGAL-HRP
Protocol: as §1
(§7) The same ELISA setup was also employed to determine the binding potency of fusion proteins to CD137, where huCD137-His (human CD137 with C-terminal polyhistidine tag, R&D Systems) or cyCD137-Fc (cynomolgus CD137 C-terminally fused to Fc) was instead coated on a microtiter plate. The testing agents were similarly titrated and bound agents were detected via anti-NGAL-HRP.

[14] = molecular target: cyCD137-Fc (cynomolgus CD137 C-terminally fused to Fc) (cynomolgus); experiment: ELISA, cyCD137-Fc coated, detection anti-NGAL-HRP
Protocol: as §1, §7

[15] = molecular target: T8, cynomolgus CD137 expressed on cells (cynomolgus, UniProt A9YYE7 24-254); experiment: flow cytometry, Flp-In-CHO::cynoCD137 cells
T8 construct: also called Flp-In-CHO::cynoCD137
Protocol: as §2, §3

T6 sequence (Q07011 24-186 limits assumed): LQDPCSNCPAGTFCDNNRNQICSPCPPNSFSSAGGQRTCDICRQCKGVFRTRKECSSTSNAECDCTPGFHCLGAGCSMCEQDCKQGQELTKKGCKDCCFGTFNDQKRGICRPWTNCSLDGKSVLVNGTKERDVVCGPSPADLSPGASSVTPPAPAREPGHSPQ
T4 sequence (Q9NZQ7 19-239 limits assumed): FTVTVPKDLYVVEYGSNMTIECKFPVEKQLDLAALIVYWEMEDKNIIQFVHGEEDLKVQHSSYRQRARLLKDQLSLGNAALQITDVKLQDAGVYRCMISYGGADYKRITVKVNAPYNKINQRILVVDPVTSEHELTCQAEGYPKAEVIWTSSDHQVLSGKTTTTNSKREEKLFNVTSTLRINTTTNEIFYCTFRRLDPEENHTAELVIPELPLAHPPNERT
T2 sequence (Q9NZQ7 19-239 limits assumed): as above
T7 sequence (Q07011 24-255): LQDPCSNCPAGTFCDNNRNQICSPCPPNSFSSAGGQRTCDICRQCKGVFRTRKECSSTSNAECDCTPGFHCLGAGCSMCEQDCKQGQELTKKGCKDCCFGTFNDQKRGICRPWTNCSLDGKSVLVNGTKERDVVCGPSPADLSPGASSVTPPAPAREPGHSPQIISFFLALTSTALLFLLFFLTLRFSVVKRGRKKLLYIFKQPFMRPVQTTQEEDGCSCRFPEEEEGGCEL
T3 sequence (Q9NZQ7 19-290): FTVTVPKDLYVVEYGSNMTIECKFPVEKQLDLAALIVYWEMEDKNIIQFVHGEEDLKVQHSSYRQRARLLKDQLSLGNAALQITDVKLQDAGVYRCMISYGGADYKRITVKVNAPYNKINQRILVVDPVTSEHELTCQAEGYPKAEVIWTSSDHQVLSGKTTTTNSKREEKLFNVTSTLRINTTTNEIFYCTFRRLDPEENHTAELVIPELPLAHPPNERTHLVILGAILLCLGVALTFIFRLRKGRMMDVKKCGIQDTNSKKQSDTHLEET
T8 sequence (A9YYE7 entry or part of it limits assumed): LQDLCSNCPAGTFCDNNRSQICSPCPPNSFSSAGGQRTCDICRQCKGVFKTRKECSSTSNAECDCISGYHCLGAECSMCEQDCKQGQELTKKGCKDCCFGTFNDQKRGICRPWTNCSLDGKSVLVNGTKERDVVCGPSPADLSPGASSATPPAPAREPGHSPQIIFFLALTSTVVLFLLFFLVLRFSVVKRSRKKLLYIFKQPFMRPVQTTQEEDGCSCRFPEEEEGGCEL

Binder | EC50 [1] | IC50 [2] | EC50 [3] | Kd [4] | koff [4] | kon [4] | EC50 [5] | EC50 [6] | EC50 [7] | Kd [8] | koff [8] | kon [8] | EC50 [9] | EC50 [nM] With RKO cells (CD137 Bioassay, NFκB-luc2/CD137 Jurkat luminescence) [10] | EC50 [11] | EC50 [12] | EC50 [13] | EC50 [14] | EC50 [15]
PD-L1 antibody SEQ ID NOs: 86 and 87 (building block of the fusion proteins) (antibody, human IgG4 S228P, kappa, F234A L235A, V domains shown) VH: QVQLQESGPGLVKPSETLSITCTVSGFSLSNYDISWIRQPPGKGLEWLGVIWTGGATNYNPALKSRLTISRDNSKNQVSLKMSSVTAADTAVYYCVRDSNYRYDEPFTYWGQGTLVTVSS VL: EIVLTQSPDTLSVTPKEKVTLTCRASQSIGTNIHWFQQKPGQSPKLLIKYASESISGVPSRFSGSGSGTDFTLTINSVEAEDAATYYCQQSNSWPYTFGQGTKLEIKR | 0.1 nM | 3.5 nM | 2.96 nM | 0.593 nM | 0.000649 s⁻¹ | 1.09e+06 M⁻¹ s⁻¹ | 3.55 nM | 0.32 nM | 0.12 nM | – | – | – | – | – | – | – | – | – | –
fusion protein SEQ ID NOs: 94 and 87 (bispecific antibody, human IgG4 S228P, kappa, F234A L235A, Antibody-lipocalin mutein fusion, IgG4 S228P backbone) heavy: not shown light: EIVLTQSPDTLSVTPKEKVTLTCRASQSIGTNIHWFQQKPGQSPKLLIKYASESISGVPSRFSGSGSGTDFTLTINSVEAEDAATYYCQQSNSWPYTFGQGTKLEIKRTVAAPSVFIFPPSDEQLKSGTASVVCLLNNFYPREAKVQWKVDNALQSGNSQESVTEQDSKDSTYSLSSTLTLSKADYEKHKVYACEVTHQGLSSPVTKSFNRGEC | 0.15 nM | 2.4 nM | 6.99 nM | 0.608 nM | 0.000916 s⁻¹ | 1.51e+06 M⁻¹ s⁻¹ | 5.89 nM | 0.69 nM | 0.18 nM | 5.5 nM | 0.000224 s⁻¹ | 40700 M⁻¹ s⁻¹ | 4.15 nM | – | 2.6 nM | 0.48 nM | 0.16 nM | 0.19 nM | 6.92 nM
reference CD137 antibody SEQ ID NOs: 28 and 29 (antibody, human IgG4 S228P, kappa, V domains shown, also called anti-CD137 benchmark antibody) VH: QVQLQQWGAGLLKPSETLSLTCAVYGGSFSGYYWSWIRQSPEKGLEWIGEINHGGYVTYNPSLESRVTISVDTSKNQFSLKLSSVTAADTAVYYCARDYGPGNYDWYFDLWGRGTLVTVSS VL: EIVLTQSPATLSLSPGERATLSCRASQSVSSYLAWYQQKPGQAPRLLIYDASNRATGIPARFSGSGSGTDFTLTISSLEPEDFAVYYCQQRSNWPPALTFGGGTKVEIKR | – | – | – | – | – | – | – | – | – | 6.24 nM | – | – | 1.31 nM | 0.814 nM | – | – | – | – | –

The remaining lines, values ahead:

EC50 [1] | IC50 [2] | EC50 [3] | Kd [4] | koff [4] | kon [4] | EC50 [5] | EC50 [6] | EC50 [7] | Kd [8] | koff [8] | kon [8] | EC50 [9] | EC50 [nM] With RKO cells (CD137 Bioassay, NFκB-luc2/CD137 Jurkat luminescence) [10] | EC50 [11] | EC50 [12] | EC50 [13] | EC50 [14] | EC50 [15] | Binder
0.17 nM | 3.2 nM | 4.63 nM | 1.38 nM | 0.000754 s⁻¹ | 546000 M⁻¹ s⁻¹ | 2.03 nM | 1.38 nM | 0.19 nM | 3.55 nM | 0.00013 s⁻¹ | 36800 M⁻¹ s⁻¹ | 12.7 nM | 0.264 nM | 6.7 nM | 0.74 nM | 0.35 nM | 8.1 nM | – | fusion protein SEQ ID NOs: 86 and 93 (bispecific antibody, human IgG4 S228P, kappa, F234A L235A, Antibody-lipocalin mutein fusion, IgG4 S228P backbone; Bivalent to CD137) heavy: not shown light: QDSTSDLIPAPPLSKVPLQQNFQDNQFHGKWYVVGQAGNIRLREDKDPIKMMATIYELKEDKSYDVTMVKFDDKKCMYDIWTFVPGSQPGEFTLGKIKSFPGHTSSLVRVVSTNYNQHAMVFFKFVFQNREEFYITLYGRTKELTSELKENFIRFSKSLGLPENHIVFPVPIDQCIDGGGGGSGGGGSGGGGSEIVLTQSPDTLSVTPKEKVTLTCRASQSIGTNIHWFQQKPGQSPKLLIKYASESISGVPSRFSGSGSGTDFTLTINSVEAEDAATYYCQQSNSWPYTFGQGTKLEIKRTVAAPSVFIFPPSDEQLKSGTASVVCLLNNFYPREAKVQWKVDNALQSGNSQESVTEQDSKDSTYSLSSTLTLSKADYEKHKVYACEVTHQGLSSPVTKSFNRGEC
0.15 nM | 3.4 nM | 2.95 nM | 1.02 nM | 0.000803 s⁻¹ | 787000 M⁻¹ s⁻¹ | 2.03 nM | 1 nM | 0.16 nM | 5.97 nM | 0.000208 s⁻¹ | 34800 M⁻¹ s⁻¹ | 11.9 nM | 0.181 nM | 7.2 nM | 1.2 nM | 0.41 nM | 9.8 nM | – | fusion protein SEQ ID NOs: 92 and 87 (bispecific antibody, human IgG4 S228P, kappa, F234A L235A, Antibody-lipocalin mutein fusion, IgG4 S228P backbone; Bivalent to CD137) heavy: not shown light: EIVLTQSPDTLSVTPKEKVTLTCRASQSIGTNIHWFQQKPGQSPKLLIKYASESISGVPSRFSGSGSGTDFTLTINSVEAEDAATYYCQQSNSWPYTFGQGTKLEIKRTVAAPSVFIFPPSDEQLKSGTASVVCLLNNFYPREAKVQWKVDNALQSGNSQESVTEQDSKDSTYSLSSTLTLSKADYEKHKVYACEVTHQGLSSPVTKSFNRGEC
